Experimental data reported in patent US5789163, “Enzyme linked oligonucleotide assays (ELONAS)” (NeXstar Pharmaceuticals, Inc.).

Experiments:
[1] = biological target: hTSH (human thyroid stimulating hormone) (Homo sapiens, UniProt P01215;P01222 P01215:25-116,P01222:21-132); experiment: ELONA; RNA as capture molecule in TEM buffer; signals analogous to commercial ELISA; settings: tags: Becton Dickinson, 9 IU/mg, Mr 27,700; label: 5'-biotin (GDP-beta-S, iodoacetyl-LC-biotin)
[2] = biological target: hCG (human chorionic gonadotropin) (Homo sapiens, UniProt P01215;P0DN86 P01215:25-116,P0DN86:21-165); experiment: ELONA; RNA as capture molecule in TEM buffer; detection down to 200 mIU (340 pM); settings: tags: Vitro Diagnostics, 14,000 IU/mg, Mr 42,000; label: 5'-biotin (GDP-beta-S, iodoacetyl-LC-biotin)
Chain of hCG (human chorionic gonadotropin) (P01215 25-116, chain 1 of 2, other chains not shown): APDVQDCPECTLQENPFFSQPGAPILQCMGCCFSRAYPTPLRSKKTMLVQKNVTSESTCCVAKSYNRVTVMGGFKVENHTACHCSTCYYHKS

[3] = biological target: VEGF (vascular endothelial growth factor) (Homo sapiens, UniProt P15692-4 P15692-4:27-191); experiment: ELONA; 95% CI 0.19-0.33 nM, N=6; VEGF titration in sandwich with capture antibody, ligand 400 nM as detector, room temperature; 0.236 nM in Superblock/TBS-Tween variant; settings: tags: R&D Systems recombinant human VEGF; chain copies: 2; label: 3'-biotin
Chain of VEGF (vascular endothelial growth factor) (P15692 other isoform, or with tags, fused parts or gaps): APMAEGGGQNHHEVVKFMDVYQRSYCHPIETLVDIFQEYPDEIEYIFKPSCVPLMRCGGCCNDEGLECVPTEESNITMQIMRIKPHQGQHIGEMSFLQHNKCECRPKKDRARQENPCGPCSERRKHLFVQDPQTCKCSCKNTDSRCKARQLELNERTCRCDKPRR

Chain of hTSH (human thyroid stimulating hormone) (P01215 25-116, chain 1 of 2): as the sequence (P01215 25-116, chain 1 of 2, other chains not shown) above
Chain of hTSH (human thyroid stimulating hormone) (P01222 21-132, chain 2 of 2): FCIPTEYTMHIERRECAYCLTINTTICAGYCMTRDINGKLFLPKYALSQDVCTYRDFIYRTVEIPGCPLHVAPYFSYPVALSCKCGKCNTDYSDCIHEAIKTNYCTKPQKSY

B1: T-15 (ssRNA)
RNA: GGGAGGACGAUGCGGAUGUUGGCAGCAGGGUCCGACGGCGUAACCUUGCCAGCUGCAGACGACUCGCCCGA
modifications: 2'-NH2 on all C and U
[1]
  binding result: binds

B2: H-42 (ssRNA)
RNA: GGGAGGACGAUGCGGACAAGGGCCUGAGUGUGGAGGGCACGUGGAGGGGACUGGCCAGACGACUCGCCCGA
modifications: 2'-NH2 on all C and U
[2]
  binding result: binds

## ACCCUGAUGGUAGACGCCGGG (ssRNA, 2'-NH2 pyrimidines) [VEGF-NeXamer]
[3]
  EC50: 0.25 nM
